This note sets out measurements from patent publication US20240294594A1 (CYTUNE PHARMA, published 2024).

Assay [1] concerns the target PD-1 (on PD-1 Effector Cells of the Promega PD-1/PD-L1 Blockade Bioassay) (UniProt Q15116 25-288, limits assumed). Nature of the assay: cell-based or functional assay.
The target in assay [2] is T1, FcγRIIIa V158 (human, UniProt P08637 17-208, limits assumed).
T1 construct: also called hFcγRIIIaV158; CD16a V158
Nature of the assay: SPR (Biacore 8K), ratio of 1/Kd values. The method, then: (§1) SPR experiments were performed on a Biacore 8K (Cytiva, Chicago, IL, USA), using CM5 sensor chips (Cytiva) with an immobilization using THE His tag antibodies (Genscript). FcγRIIIa V158, FcγRIIIa F158 or FcγRIIb protein were used for capture with a contact time of 30 sec at a flow rate of […] in a 1×HBS-EP+ running buffer. Association/dissociation rates were measured for each tested immunocytokine at a flow rate of 30 μl/min with concentration serial dilution in a suitable range with an association time/dissociation time of 300 s/300 s except for constructs with DLE and DE with and without afucosylation, where association/dissociation time of 120 s/1200 s was applied.

Assay [3] has as its target T2, FcγRIIIa F158 (human, UniProt P08637 17-208, limits assumed).
T2 construct: also called hFcγRIIIaF158; CD16a F158
Nature of the assay: SPR (Biacore 8K), ratio of 1/Kd values. The method, then:
as §1
In general terms: SPR reads the build-up and loss of mass on a sensor chip optically.

The target in assay [4] is T1, FcγRIIIa V158. Nature of the assay: SPR (Biacore 8K), receptor captured via anti-His antibody. As for the experimental part: as §1
The target of the next assay is T3, FcγRIIb (UniProt P31994 46-217, limits assumed).
T3 construct: also called FcgRIIb
T3 sequence (looked up): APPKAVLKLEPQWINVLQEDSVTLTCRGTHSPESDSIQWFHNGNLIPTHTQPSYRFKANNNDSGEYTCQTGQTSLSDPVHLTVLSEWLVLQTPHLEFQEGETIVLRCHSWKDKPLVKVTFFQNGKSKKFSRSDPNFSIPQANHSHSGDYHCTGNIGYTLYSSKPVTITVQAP
The description is as above. The method, then:
as §1

The target of assay [5] is T2, FcγRIIIa F158. The assay is described as above. The method, then: as §1
Assay [6] deals with T4, IL-2/IL-15Rβγ (on cells) (UniProt P14784 27-551; P31785 23-369, limits assumed).
T4 sequence (looked up) 1: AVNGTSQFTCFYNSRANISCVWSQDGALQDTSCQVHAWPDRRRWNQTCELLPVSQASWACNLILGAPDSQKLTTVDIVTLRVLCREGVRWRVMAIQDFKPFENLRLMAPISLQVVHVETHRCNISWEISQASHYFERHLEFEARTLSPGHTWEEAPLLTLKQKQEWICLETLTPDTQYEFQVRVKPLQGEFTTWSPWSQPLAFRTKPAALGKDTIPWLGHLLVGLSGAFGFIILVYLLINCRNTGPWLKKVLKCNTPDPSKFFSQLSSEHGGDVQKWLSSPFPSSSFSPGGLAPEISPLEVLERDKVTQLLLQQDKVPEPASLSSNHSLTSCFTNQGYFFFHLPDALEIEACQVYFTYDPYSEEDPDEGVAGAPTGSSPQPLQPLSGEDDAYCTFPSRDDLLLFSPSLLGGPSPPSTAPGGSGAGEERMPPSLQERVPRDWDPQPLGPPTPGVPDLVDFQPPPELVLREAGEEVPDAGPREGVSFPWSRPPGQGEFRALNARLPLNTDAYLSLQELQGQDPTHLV
T4 sequence (looked up) 2: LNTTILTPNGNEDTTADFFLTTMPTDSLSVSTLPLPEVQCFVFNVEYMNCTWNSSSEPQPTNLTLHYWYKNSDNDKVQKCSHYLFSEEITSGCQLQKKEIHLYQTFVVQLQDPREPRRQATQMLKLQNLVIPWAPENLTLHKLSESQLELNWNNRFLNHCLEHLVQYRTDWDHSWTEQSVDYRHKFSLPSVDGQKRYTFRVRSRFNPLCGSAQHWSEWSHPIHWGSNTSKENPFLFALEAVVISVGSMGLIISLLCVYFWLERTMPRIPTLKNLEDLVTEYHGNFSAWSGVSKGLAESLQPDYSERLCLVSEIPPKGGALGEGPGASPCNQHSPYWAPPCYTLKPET
Description: cell-based or functional assay.

Assay [7] addresses T4, IL-2/IL-15Rβγ (on cells). Description: cell-based or functional assay. The source holds these as a separate data set.

T2 sequence (P08637 17-208 limits assumed): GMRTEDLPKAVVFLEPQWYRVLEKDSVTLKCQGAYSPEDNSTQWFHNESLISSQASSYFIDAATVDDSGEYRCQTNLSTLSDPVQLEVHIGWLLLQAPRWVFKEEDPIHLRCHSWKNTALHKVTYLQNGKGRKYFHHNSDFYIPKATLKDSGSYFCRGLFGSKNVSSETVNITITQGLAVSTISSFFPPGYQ
T1 sequence (P08637 17-208 F176V limits assumed): as the sequence (P08637 17-208 limits assumed) above, with F160V counted along it
Sequence of PD-1 (on PD-1 Effector Cells of the Promega PD-1/PD-L1 Blockade Bioassay) (Q15116 25-288 limits assumed): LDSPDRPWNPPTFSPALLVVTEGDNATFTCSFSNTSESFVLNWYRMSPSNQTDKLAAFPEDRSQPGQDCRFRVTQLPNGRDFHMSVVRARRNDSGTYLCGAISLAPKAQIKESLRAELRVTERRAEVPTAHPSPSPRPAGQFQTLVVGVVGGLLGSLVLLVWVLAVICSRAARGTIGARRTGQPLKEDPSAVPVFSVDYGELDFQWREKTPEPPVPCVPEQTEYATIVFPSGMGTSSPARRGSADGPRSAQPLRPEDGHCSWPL

B1: PEM LE/YTE-RLI NA x1 (other)
heavy 1: QVQLVQSGVEVKKPGASVKVSCKASGYTFTNYYMYWVRQAPGQGLEWMGGINPSNGGTNFNEKFKNRVTLTTDSSTTTAYMELKSLQFDDTAVYYCARRDYRFDMGFDYWGQGTTVTVSSASTKGPSVFPLAPCSRSTSESTAALGCLVKDYFPEPVTVSWNSGALTSGVHTFPAVLQSSGLYSLSSVVTVPSSSLGTKTYTCNVDHKPSNTKVDKRVESKYGPPCPPCPAPEFEGGPSVFLFPPKPKDTLYITREPEVTCVVVDVSQEDPEVQFNWYVDGVEVHNAKTKPREEQFNSTYRVVSVLTVLHQDWLNGKEYKCKVSNKGLPSSIEKTISKAKGQPREPQVYTLPPSQEEMTKNQVSLWCLVKGFYPSDIAVEWESNGQPENNYKTTPPVLDSDGSFFLYSRLTVDKSRWQEGNVFSCSVMHEALHNHYTQKSLSLSLGITCPPPMSVEHADIWVKSYSLYSRERYICNSGFKRKAGTSSLTECVLNKATNVAHWTTPSLKCIRDPALVHQRPAPPSGGSGGGGSGGGSGGGGSGGNWVNVISDLKKIEDLIQSMHIDATLYTESDVHPSCKVTAMKCFLLELQVISLESGDASIHDTVEALIILANNSLSSNAQVTESGCKECEELEEKNIKEFLQSFVHIVQMFINTS
heavy 2: QVQLVQSGVEVKKPGASVKVSCKASGYTFTNYYMYWVRQAPGQGLEWMGGINPSNGGTNFNEKFKNRVTLTTDSSTTTAYMELKSLQFDDTAVYYCARRDYRFDMGFDYWGQGTTVTVSSASTKGPSVFPLAPCSRSTSESTAALGCLVKDYFPEPVTVSWNSGALTSGVHTFPAVLQSSGLYSLSSVVTVPSSSLGTKTYTCNVDHKPSNTKVDKRVESKYGPPCPPCPAPEFEGGPSVFLFPPKPKDTLYITREPEVTCVVVDVSQEDPEVQFNWYVDGVEVHNAKTKPREEQFNSTYRVVSVLTVLHQDWLNGKEYKCKVSNKGLPSSIEKTISKAKGQPREPQVYTLPPSQEEMTKNQVSLSCAVKGFYPSDIAVEWESNGQPENNYKTTPPVLDSDGSFFLVSRLTVDKSRWQEGNVFSCSVMHEALHNHYTQKSLSLSLG
light: EIVLTQSPATLSLSPGERATLSCRASKGVSTSGYSYLHWYQQKPGQAPRLLIYLASYLESGVPARFSGSGSGTDFTLTISSLEPEDFAVYYCQHSRDLPLTFGGGTKVEIKRTVAAPSVFIFPPSDEQLKSGTASVVCLLNNFYPREAKVQWKVDNALQSGNSQESVTEQDSKDSTYSLSSTLTLSKADYEKHKVYACEVTHQGLSSPVTKSFNRGEC
Consider B1, for which the “EC50 [pM], PD-1/PD-L1 Blockade Bioassay (Promega)” value in assay [1] came to 1440 pM.

B2: hCl1a DLE-RLI DANA afuc (other)
heavy 1: QVQLVQSGAEVKKPGASVKVSCKASGYTFTDYAMHWVRQAPGQRLEWMGWINTYTGKPTYAQKFQGRVTITRDTSASTAYMELSSLRSEDTAVYYCARAVFYGYTMDAWGQGTLVTVSSASTKGPSVFPLAPSSKSTSGGTAALGCLVKDYFPEPVTVSWNSGALTSGVHTFPAVLQSSGLYSLSSVVTVPSSSLGTQTYICNVNHKPSNTKVDKKVEPKSCDKTHTCPPCPAPELLGGPDVFLFPPKPKDTLMISRTPEVTCVVVDVSHEDPEVKFNWYVDGVEVHNAKTKPREEQYNSTYRVVSVLTVLHQDWLNGKEYKCKVSNKALPLPEEKTISKAKGQPREPQVYTLPPSRDELTKNQVSLWCLVKGFYPSDIAVEWESNGQPENNYKTTPPVLDSDGSFFLYSKLTVDKSRWQQGNVFSCSVMHEALHNHYTQKSLSLSPGITCPPPMSVEHADIWVKSYSLYSRERYICNSGFKRKAGTSSLTECVLNKATNVAHWTTPSLKCIRDPALVHQRPAPPSGGSGGGGSGGGSGGGGSGGNWVNVISDLKKIEDLIQSMHIDATLYTESDVHPSCKVTAMKCFLLELQVISLESGDASIHATVEALIILANNSLSSNAQVTESGCKECEELEEKNIKEFLQSFVHIVQMFINTS
heavy 2: QVQLVQSGAEVKKPGASVKVSCKASGYTFTDYAMHWVRQAPGQRLEWMGWINTYTGKPTYAQKFQGRVTITRDTSASTAYMELSSLRSEDTAVYYCARAVFYGYTMDAWGQGTLVTVSSASTKGPSVFPLAPSSKSTSGGTAALGCLVKDYFPEPVTVSWNSGALTSGVHTFPAVLQSSGLYSLSSVVTVPSSSLGTQTYICNVNHKPSNTKVDKKVEPKSCDKTHTCPPCPAPELLGGPDVFLFPPKPKDTLMISRTPEVTCVVVDVSHEDPEVKFNWYVDGVEVHNAKTKPREEQYNSTYRVVSVLTVLHQDWLNGKEYKCKVSNKALPLPEEKTISKAKGQPREPQVYTLPPSRDELTKNQVSLSCAVKGFYPSDIAVEWESNGQPENNYKTTPPVLDSDGSFFLVSKLTVDKSRWQQGNVFSCSVMHEALHNHYTQKSLSLSPG
light: DIQMTQSPSSLSASVGDRVTITCRASEDIYSNLAWYQQKPGKAPKLLIFSVKRLQDGVPSRFSGSGSGTDFTLTISSLQPEDFATYYCLQGSNFPLTFGQGTKVEIKRTVAAPSVFIFPPSDEQLKSGTASVVCLLNNFYPREAKVQWKVDNALQSGNSQESVTEQDSKDSTYSLSSTLTLSKADYEKHKVYACEVTHQGLSSPVTKSFNRGEC
modifications: afucosylated Fc N-glycan
notes: Afucosylated form of hCl1a DLE-RLI DANA
For orientation: Kd means a measure of binding affinity in units of concentration. Lower therefore signals a tighter complex. On to B2, for which the “A/I (V158), affinity towards FcγRIIIa over affinity towards FcγRIIb” value with FcγRIIIa V158 [2] turned out to be 13700 ratio. Also, the “A/I (F158), affinity towards FcγRIIIa over affinity towards FcγRIIb” value in the assay with FcγRIIIa F158 [3] was 9370 ratio. Also, the Kd in the assay with FcγRIIIa V158 [4] was 0.162 nM; with FcγRIIb, 2220 nM; with FcγRIIIa F158 [5] it was 0.237 nM.

B3: RLI2 mutein D30N/E64Q/N65D (NQD) of Table 13 (ligand)
chain: ITCPPPMSVEHADIWVKSYSLYSRERYICNSGFKRKAGTSSLTECVLNKATNVAHWTTPSLKCIRDPALVHQRPAPPSGGSGGGGSGGGSGGGGSGGNWVNVISDLKKIEDLIQSMHIDATLYTESNVHPSCKVTAMKCFLLELQVISLESGDASIHDTVQDLIILANNSLSSNGNVTESGCKECEELEEKNIKEFLQSFVHIVQMFINTS
Consider B3, for which the “Potency in vitro (kit225)” value with IL-2/IL-15Rβγ (on cells) [6] is -15700 x (fold against RLI2 wt).

B4: RLI DANAQD (ligand)
chain: ITCPPPMSVEHADIWVKSYSLYSRERYICNSGFKRKAGTSSLTECVLNKATNVAHWTTPSLKCIRDPALVHQRPAPPSGGSGGGGSGGGSGGGGSGGNWVNVISDLKKIEDLIQSMHIDATLYTESDVHPSCKVTAMKCFLLELQVISLESGDASIHATVEALIILANNSLSSNGNVTESGCKECEELEEKNIKEFLDSFVHIVQMFINTS
For the molecule B4, the “EC50 kit225 cells [pM]” value in the assay with IL-2/IL-15Rβγ (on cells) [7] stood at 106000 pM.
